The target of experiment [1] is T1, mouse Tie1 (Mus musculus, UniProt Q06806).
T1 construct: host or cells: MS1, Le-2, Bend3, SVEC
The experiment is described as follows: Flow cytometry on mouse endothelial cell lines. It counts as binding. Particulars: MS1, Le-2, Bend3, SVEC, biotinylated antibody. As for the experimental part:
We evaluated if E3 cross reacts with mouse Tie1 in situ and thus if we can evaluate E3 activity in mouse tumor xenograft models binding to mouse endothelial cells was tested and compared with human and transfected cell lines.
Specific binding of the Tie1 antibodies and of control Mabs to mouse endothelial cells was measured by flow cytometry analysis (FACSscan, Becton Dickinson, Oxnard, Epics, Coulter). Mouse endothelial cell lines MS1, Le-2, Bend3, SVEC (ATCC, Rockville) and Tie1 transfected Le-2 cells were stained. Cell staining was modified from existing protocols. About 200,000 cells were used in each experiment: after trypsinization, cells were washed one time in PBS and resuspended PBS, 10% heat inactivated human serum (incubation buffer). […] After the final incubation step bound antibodies were detected by means of flow cytometry on a FACSCan and Epics Altra (Becton Dickinson, Oxnard, Coulter) and results analyzed.
Intracellular Tie1 was measured as described above, except for the addition of Saponin to the incubation buffer to a final concentration of 0.1% during incubations. […] The binding pattern in mouse cell lines detected by flow cytometry is different from the binding pattern in HUVEC in that in mouse cells there is a greater cell surface staining than that compared to primary human endothelial cell lines. […]

Experiment [2] concerns the target T2, mouse Tie1 Fc (Mus musculus, UniProt Q06806).
T2 construct: both dimeric (Tie1-Fc fusion protein) and monomeric (Tie1-HIS) versions of the extracellular domain of the Tie1 were used
T2 sequence (Q06806 23-755 limits assumed): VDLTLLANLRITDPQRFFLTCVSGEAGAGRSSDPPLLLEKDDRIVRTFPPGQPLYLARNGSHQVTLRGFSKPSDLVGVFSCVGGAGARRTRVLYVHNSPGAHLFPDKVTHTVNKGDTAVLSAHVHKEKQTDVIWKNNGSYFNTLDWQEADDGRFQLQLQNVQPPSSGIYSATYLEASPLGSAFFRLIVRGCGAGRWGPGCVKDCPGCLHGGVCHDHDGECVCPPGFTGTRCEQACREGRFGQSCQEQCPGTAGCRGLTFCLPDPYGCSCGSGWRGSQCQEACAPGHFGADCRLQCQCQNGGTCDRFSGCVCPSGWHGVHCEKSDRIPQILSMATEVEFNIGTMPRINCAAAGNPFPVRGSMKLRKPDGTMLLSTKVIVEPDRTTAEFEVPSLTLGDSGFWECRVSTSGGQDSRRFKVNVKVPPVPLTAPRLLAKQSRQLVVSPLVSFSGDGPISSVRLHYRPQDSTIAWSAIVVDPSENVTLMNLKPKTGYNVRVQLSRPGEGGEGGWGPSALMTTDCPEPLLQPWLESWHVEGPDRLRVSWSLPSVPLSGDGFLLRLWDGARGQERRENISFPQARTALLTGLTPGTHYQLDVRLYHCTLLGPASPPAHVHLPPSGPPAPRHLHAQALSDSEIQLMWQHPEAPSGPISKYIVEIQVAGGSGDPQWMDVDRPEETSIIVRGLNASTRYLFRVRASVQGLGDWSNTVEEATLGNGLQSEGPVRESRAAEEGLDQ
In words: BIAcore, mouse Tie1 Fc over IgG coated on CM5 chip. Particulars: IgG immobilised; Mouse Tie1 Fc analyte. In kind it is binding. As for the experimental part:
In order to evaluate if the binding behavior had been affected in any way by the conversion of the somatic mutations back to germline, the germlined antibody was produced and tested as an IgG. The germlined E3 was reformatted to an IgG as described. This was then used to transiently transfect HEK293T cells using established procedures. The IgG was purified from the culture supernatant using protein A column chromatography using established procedures and the subsequent IgG was then tested for binding activity using surface plasmon resonance (BIAcore). The germlined E3 IgG1 stock solution 0.63 mg/ml (2146-002) was diluted 1/50 in a buffer of pH 4.5 and the parental E3 IgG1 stock solution 0.56 mg/ml (2143-001) was diluted 1/50 in a buffer of pH 4.5. The IgG were directly coated via onto a CM5 chip. The surface of the chips was activated with a 7 minute pulse of 0.05M NHS/0.2M EDC and the IgG was flowed over until 780RU germlined E3-IgG and 728 non germlined E3 IgG was coated onto the surface. All flow cells were subsequently deactivated with a 7 minute pulse of 1M ethanolamine hydrochloride pH8,5. All analysis was performed in HBS buffer. Purified recombinant mouse Tie1 Fc was diluted 1/6,5 in HBS to obtain a 400 nM stock solution. Serial dilutions were made to obtain 200 nM, 100 nM, 50 nM and 25 nM Tie1 Fc stocks. For analysis of the association phase samples were injected at 30 μl/min for 8.3 minutes using kinject program. This was followed by a 40 minutes dissociation phase. Any antigen remaining associated to the surface was stripped from the IgG surface at a flow of 50 μl/min with two injections of 10 mM glycine pH1.5 for 30 seconds. All samples were run and analyzed in duplicate
Sensorgrams were analyzed using the simultaneous ka/kd fitting program with 1:1 model in the BIAEVALUATION™ software 3.1.
On the technique in general: Surface plasmon resonance follows binding to a sensor surface in real time, without labels.

The term koff denotes the rate constant with which the complex falls apart. A high value points to a short-lived complex. What is called kon is the second-order rate constant of association. Low values mean slow association, high ones fast association.

Changes are numbered by the printed parent chain.

T1 sequence (Q06806 23-1134): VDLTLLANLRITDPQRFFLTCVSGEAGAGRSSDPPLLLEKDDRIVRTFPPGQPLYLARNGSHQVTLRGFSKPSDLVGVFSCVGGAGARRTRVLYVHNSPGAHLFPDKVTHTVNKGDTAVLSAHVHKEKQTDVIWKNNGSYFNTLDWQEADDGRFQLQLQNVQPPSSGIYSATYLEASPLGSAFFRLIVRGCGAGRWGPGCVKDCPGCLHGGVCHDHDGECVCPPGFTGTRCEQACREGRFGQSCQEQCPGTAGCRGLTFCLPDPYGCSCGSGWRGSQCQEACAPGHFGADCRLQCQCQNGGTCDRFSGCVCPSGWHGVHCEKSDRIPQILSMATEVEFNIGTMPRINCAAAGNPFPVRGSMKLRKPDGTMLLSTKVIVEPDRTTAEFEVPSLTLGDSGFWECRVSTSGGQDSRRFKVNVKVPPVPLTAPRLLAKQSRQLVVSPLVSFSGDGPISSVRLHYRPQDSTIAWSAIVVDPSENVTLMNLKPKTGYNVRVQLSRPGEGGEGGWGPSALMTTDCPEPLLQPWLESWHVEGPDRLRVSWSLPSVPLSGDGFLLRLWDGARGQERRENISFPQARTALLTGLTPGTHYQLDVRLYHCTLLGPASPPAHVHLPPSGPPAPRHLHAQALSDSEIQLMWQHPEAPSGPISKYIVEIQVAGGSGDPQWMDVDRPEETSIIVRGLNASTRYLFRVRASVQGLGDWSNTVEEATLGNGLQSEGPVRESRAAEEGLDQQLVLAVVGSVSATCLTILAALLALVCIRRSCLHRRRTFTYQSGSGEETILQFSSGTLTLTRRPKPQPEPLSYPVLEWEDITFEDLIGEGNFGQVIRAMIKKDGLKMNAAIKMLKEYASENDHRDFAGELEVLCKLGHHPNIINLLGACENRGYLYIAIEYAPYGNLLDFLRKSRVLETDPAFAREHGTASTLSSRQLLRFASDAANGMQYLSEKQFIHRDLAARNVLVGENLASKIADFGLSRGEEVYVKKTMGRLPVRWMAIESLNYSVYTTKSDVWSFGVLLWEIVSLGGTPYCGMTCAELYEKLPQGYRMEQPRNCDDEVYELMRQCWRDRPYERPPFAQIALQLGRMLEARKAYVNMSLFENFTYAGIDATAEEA

B1: E3: human anti-Tie1 antibody from phage Fab library, reformatted as IgG; HC variable SEQ ID NO:114, LC variable SEQ ID NO:116 (antibody, V domains shown)
VH: EVQLLESGGGLVQPGGSLRLSCAASGFTFSMYGMVWVRQAPGKGLEWVSVISPSGGNTGYADSVKGRFTISRDNSKNTLYLQVNSLRAEDTAVYYCARAPRGYSYGYYYWGQGTLVTVSSASTKGPSVFPLAPSSKSTSGG
VL: DIQMTQSPLSLSASVGDRVTITCRASQGIGHYLAWYQQKPGKVPKLLIYTASTLQSGVPSRFSGSGSGTDFTLTINSLQPEDVATYYCQQFNSYPHTFGQGTRLDIK
modifications: IgG constant regions; Synthetically generated peptide
Turning to B1, the “binding to mouse endothelial cell lines” value in experiment [1] is “binds to mouse endothelial cell lines”. In experiment [2], the off-rate constant (koff) is 9.2e-05 s⁻¹ and the “kon” value came out at 6170 M⁻¹ s⁻¹.

B2: DX-2210: E3 antibody in which the light chain has been germlined (antibody, V domains shown)
VH: B1 VH
VL: B1 VL with L9S, N76S, D105E
Take B2: the “binding to mouse endothelial cell lines” value in experiment [1] is recorded as “stained positively”. In addition, in experiment [2], the “koff” value turned out to be 8.99e-05 s⁻¹ and the on-rate (kon) was found to be 6000 M⁻¹ s⁻¹.

Source of the values: patent US20100196361A1, “Method of inhibition of vascular development using an antibody” (DYAX CORP., priority 2003, published 2010).
